Results as given in patent US9127076B2, “Modified peptides having toxin-enhancing effects” (The University of Georgia Research Foundation, dated 2015).

B1: Sf-CR10-12(PS) (receptor)
chain: MAFLDCLSATDEDGLHAGCVTFSIAGNDEAAEYFNVLNDGDNSAMLTLSQALPAGVQQFELVISATDGGTEPGPSSTDCSVTVVFVMTQGDPVFDDNAASVSFVEHEAGMSESFQLPQADDPSNYACMDDCHTIYYSIVDGNDGDHFAVEPETNVIYLLSPLDSSQQEQYSVVVAASNTPGGTSTLSSSLLTVTIGVSEANPSPIFESEFYTAGVLHTDSIHSELVYLAASHSEGLPIVYSIDQETMSIDESLQTVVEDAFDINSATGVISLNFQPTSVMHGSFDFEVVASDTCGASDCASVSIYMISTRVRVHHHHHH
B2: Ms-CR10-12(PS) (receptor)
chain: MHLECISATDPDGLHAGVVTFQVVGDEESQAYFQVVNDGANLGSLSLLQAVPEEIAEFSITICATDQGTDPGPLSTDMTFAVVFVPTQGEPAFASSEHAVAFIEASAGMEESHQLPLAQDIANHLCEDDCHSIYYAIIDGNSEGHFGLDPVANALFLSAELIAEQSASHTLQVAASNSPDGGIPLPASILTVTVTVAEADPAPVFMAELYTAGISTADSIGCELLALHATQSEGAAITYAIDYDTMVVDPSLEAVCQSAFVLNAQTGVLTLNIQPTATMHGLFNFEVTATDTAGAQDRTDVTVYVVSSQNRLEHHHHHH
B3: Sf-CR10-12 (receptor)
chain: MKFLDRLSATDEDGLHAGRVTFSIAGNDEAAEYFNVLNDGDNSAMLTLKQALPAGVQQFELVIRATDGGTEPGPRSTDCSVTVVFVMTQGDPVFDDNAASVRFVEKEAGMSEKFQLPQADDPKNYRCMDDCHTIYYSIVDGNDGDHFAVEPETNVIYLLKPLDRSQQEQYRVVVAASNTPGGTSTLSSSLLTVTIGVREANPRPIFESEFYTAGVLHTDSIHKELVYLAAKHSEGLPIVYSIDQETMKIDESLQTVVEDAFDINSATGVISLNFQPTSVMHGSFDFEVVASDTRGASDRAKVSIYMISTRVRVHHHHHH

molecular target: Cry1Fa toxin (Bacillus thuringiensis, UniProt Q03746); assay: cell-based or functional assay

Binder	larval mortality and larval weight, diet surface bioassay, neonate S. frugiperda, 0.1 µg/cm^2 Cry1Fa [fold]
B1	~4
B2	< 2
B3	~2
